Measurements: patent publication US20250163182A1 (Janssen / Centocor, published 2025)

T1: ENPP1 on CHOK1 cells (UniProt P22413 1-925, limits assumed)
T1 construct: whole, on cells; also called ectonucleotide pyrophosphatase/phosphodiesterase family member 1; CHO ENPP1 OE
T1 sequence (looked up): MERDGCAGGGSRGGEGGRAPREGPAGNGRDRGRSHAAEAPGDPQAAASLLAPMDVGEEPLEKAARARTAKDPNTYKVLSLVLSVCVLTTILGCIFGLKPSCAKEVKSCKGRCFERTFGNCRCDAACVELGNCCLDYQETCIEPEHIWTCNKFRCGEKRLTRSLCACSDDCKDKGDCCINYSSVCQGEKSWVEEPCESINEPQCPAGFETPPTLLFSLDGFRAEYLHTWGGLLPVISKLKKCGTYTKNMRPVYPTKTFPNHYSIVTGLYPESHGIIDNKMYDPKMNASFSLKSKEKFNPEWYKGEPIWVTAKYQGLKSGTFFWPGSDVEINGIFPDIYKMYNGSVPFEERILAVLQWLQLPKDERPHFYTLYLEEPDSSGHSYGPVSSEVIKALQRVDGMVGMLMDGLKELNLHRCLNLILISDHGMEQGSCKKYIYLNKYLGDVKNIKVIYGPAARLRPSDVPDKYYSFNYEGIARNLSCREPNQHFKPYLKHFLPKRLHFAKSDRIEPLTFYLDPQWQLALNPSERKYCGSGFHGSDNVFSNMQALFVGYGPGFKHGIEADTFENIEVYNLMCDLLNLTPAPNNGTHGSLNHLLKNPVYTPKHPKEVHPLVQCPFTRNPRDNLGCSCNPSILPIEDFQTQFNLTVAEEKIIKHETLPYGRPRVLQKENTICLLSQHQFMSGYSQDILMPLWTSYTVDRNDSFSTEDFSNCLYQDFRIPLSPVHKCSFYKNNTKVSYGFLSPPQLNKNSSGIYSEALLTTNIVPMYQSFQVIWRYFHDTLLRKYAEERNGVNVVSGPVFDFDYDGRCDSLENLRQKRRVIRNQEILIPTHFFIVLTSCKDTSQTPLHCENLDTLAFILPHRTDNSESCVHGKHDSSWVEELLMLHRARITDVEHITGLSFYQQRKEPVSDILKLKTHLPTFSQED

T2: human ENPP3 on cells (human, UniProt O14638 1-875)
T2 construct: whole, on cells; also called ENPP3 on A704, VMRCRCW, HepG2, TUHR4TKB, TUHR10TKB; CHO-K1 ENPP3 OE
T2 sequence (looked up): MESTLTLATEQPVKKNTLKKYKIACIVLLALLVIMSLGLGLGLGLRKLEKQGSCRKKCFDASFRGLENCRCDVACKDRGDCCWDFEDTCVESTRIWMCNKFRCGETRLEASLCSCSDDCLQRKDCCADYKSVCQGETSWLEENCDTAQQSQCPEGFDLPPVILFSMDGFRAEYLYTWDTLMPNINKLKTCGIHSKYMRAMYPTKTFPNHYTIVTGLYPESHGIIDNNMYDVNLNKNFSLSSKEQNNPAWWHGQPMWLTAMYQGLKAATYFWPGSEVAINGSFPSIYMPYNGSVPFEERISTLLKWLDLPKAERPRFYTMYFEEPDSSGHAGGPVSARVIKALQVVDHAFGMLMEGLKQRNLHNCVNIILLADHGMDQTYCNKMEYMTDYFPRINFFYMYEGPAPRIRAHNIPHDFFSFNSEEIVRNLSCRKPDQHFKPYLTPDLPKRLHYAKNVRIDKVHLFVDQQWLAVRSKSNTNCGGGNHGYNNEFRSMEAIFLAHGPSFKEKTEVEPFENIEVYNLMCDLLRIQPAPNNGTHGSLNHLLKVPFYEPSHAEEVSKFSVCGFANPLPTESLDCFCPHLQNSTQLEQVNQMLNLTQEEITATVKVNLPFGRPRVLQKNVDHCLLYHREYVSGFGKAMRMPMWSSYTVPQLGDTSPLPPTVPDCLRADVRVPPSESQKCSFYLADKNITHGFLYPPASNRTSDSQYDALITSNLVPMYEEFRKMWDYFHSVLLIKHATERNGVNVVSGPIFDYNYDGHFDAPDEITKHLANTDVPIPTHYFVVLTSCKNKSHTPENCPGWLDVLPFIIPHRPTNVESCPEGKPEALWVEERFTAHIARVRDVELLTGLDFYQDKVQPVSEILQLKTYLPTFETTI

T3: human ENPP3 (human, UniProt O14638 46-875, limits assumed)
T3 construct: neither the construct nor the method is stated; also called ectonucleotide pyrophosphatase/phosphodiesterase family member 3
T3 sequence (looked up): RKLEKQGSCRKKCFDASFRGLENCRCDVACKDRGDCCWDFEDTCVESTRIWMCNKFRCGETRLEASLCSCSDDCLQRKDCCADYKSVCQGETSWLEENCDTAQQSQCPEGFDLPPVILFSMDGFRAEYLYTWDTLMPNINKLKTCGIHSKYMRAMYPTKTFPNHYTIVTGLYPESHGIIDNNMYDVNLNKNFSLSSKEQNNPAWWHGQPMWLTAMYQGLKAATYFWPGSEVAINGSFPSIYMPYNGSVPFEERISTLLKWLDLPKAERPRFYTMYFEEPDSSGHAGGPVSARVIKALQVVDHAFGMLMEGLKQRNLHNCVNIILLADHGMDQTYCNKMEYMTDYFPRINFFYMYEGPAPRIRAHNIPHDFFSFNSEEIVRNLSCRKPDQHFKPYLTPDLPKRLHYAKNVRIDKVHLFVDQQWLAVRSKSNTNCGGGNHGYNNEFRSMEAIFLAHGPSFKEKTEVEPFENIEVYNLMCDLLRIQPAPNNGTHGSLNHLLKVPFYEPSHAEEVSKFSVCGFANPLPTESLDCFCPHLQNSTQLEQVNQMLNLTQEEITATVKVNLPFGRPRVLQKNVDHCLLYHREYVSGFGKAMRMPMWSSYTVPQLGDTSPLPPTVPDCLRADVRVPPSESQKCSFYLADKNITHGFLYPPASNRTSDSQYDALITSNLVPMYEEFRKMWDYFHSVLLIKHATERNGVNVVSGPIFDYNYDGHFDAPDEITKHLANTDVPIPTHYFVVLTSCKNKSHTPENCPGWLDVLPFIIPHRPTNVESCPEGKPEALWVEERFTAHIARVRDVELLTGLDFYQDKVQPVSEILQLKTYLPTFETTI

T4: cynomolgus monkey ENPP3 (cynomolgus monkey, UniProt A0A2K5TKP4 46-874)
T4 construct: also called cyno ENPP3
T4 sequence: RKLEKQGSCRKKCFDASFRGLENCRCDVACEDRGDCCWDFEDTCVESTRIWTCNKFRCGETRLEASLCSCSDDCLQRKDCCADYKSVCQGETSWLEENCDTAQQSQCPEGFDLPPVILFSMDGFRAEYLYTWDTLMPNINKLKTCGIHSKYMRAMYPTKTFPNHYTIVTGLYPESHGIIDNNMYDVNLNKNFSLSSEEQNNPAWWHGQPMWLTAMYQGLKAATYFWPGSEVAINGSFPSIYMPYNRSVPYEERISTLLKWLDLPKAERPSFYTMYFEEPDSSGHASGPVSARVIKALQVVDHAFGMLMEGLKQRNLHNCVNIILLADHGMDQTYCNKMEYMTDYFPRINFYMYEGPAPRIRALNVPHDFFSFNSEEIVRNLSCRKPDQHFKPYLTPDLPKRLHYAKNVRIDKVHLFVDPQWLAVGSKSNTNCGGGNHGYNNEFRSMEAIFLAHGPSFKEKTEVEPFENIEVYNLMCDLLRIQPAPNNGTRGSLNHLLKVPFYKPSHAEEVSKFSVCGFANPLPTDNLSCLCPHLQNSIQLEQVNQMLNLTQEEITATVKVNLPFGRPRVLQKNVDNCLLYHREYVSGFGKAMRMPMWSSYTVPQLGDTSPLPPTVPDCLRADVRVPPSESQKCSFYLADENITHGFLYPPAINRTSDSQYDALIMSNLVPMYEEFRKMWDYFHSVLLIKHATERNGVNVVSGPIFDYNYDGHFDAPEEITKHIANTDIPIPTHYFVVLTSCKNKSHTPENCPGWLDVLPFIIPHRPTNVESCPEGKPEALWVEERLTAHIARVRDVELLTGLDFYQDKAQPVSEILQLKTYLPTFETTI


Columns and labels:
ENPP1 on CHOK1 cells = target: T1, ENPP1 on CHOK1 cells; assay: flow cytometry on CHO cells overexpressing ENPP1
human ENPP3 on cells = target: T2, human ENPP3 on cells; assay: flow cytometry on CHO cells overexpressing ENPP3
Method: To evaluate the specificity of binders to ENPP3 compared to other ENPP family members, cell binding was assessed on CHOK1 cells overexpressing ENPP1, ENPP2, or ENPP3 (FIG. 9).

ENPP2 on CHOK1 cells = ENPP2 on CHOK1 cells (UniProt Q13822 36-863); assay: flow cytometry on CHO cells overexpressing ENPP2
human ENPP3 = target: T3, human ENPP3; assay: binding affinity to human ENPP3; method not stated
cynomolgus monkey ENPP3 = target: T4, cynomolgus monkey ENPP3; assay: binding affinity to cyno ENPP3; method not stated; biphasic

Binder | EC50 (read off the curve) (human ENPP3 on cells) [µg/mL] | Kd (human ENPP3) [nM] | Kd (cynomolgus monkey ENPP3) [nM] | binding result (ENPP1 on CHOK1 cells) | binding result (ENPP2 on CHOK1 cells)
NPP3B194 (bispecific antibody, IgG1, ENPP3 Fab as VH1-CH1-hinge-CH2-CH3 IgG1 with hole T366S, L368A, Y407V and VL1-CL; scFv in VL-linker-VH-Fc orientation; also called unstapled (scFv) ENPP3×CD3; ScFv version of NPP3B815) VH: EVQLVESGGGRVKPGGSLRLSCAASGFTFSDYSMNWVRQAPGKGLEWVSSISSISSYVKYADSVKGRFTMSRDNAKNSLFLQMNSLRDEDMAVYYCARGHYFDYWGQGTLVTVSS VL: EIVMTQSPATLSVSPGERATLSCRASQSVSSNLAWYQQKPGLAPRLLIYGASTRATGIPARFSGSGSGTEFTLTISSLQSEDFAVYYCQQYNNWPRTFGQGTKVEIK scFv: EIVLTQSPATLSASPGERVTLSCSASSSVSYMNWYQQKPGQAPRRWIYDSSKLASGVPARFSGSGSGRDYTLTISSLEPEDFAVYYCQQWSRNPPTFGGGTKVEIKGGSEGKSSGSGSESKSTGGSQVQLVQSGAEVKKPGSSVKVSCKASGYTFTRSTMHWVKQAPGQGLEWIGYINPSSAYTNYNQKFQGRVTLTADKSTSTAYMELSSLRSEDTAVYYCASPQVHYDYAGFPYWGQGTLVTVSS | ~0.5 | – | – | no binding (tested: Log(ug/mL) about 1.1 (about 12 ug/mL)) | no binding (tested: Log(ug/mL) about 1.1 (about 12 ug/mL))
NPP3B60 (antibody, V domains shown, mAb from Ablexis Kappa mice) VH: QVQLVQSGAEVKKPGESLKISCKGSGYGFTNYWIGWVRQMPGKGLEWMGIIYPSDSNTRYSPSFQGQVTISADKSINTAYLQWSSLKASDTAMYYCTRQNYYYYTMDVWGQGTTVTVSS VL: DIQMTQSPSFLSASVGDRVTITCRASQVIRSYLAWYQQKPGKAPKLLIYGASTLQSGFPSRFSGSGSGTEFTLTISSLQPEDFATYYCQQLNSYPRTFGQGTKVEIK | – | 0.448 | ~1 | – | –
NPP3B64 (antibody, V domains shown, mAb from Ablexis Kappa mice) VH: QVQLVQSGAEVKKPGASVKVSCKASGYTFTTYYIHWVRQAPGQGLEWMGIINPSGGSTNYAQKFQGRVTMTRDTSTRIVYMELGSLRSEDTAVYYCARDYYYYYYGMDVWGQGTTVTVSS VL: DIVMTQSPLSLPVTLGQPASISCRSSQSLVRNGGYTYLNWLQQRPGQPPRLLIYQISNRFSGVPDRFSGSGAGTDFTLTISRVEAEDVGVYYCMQATQFPHTFGQGTKLEIK | – | 0.536 | ~2 | – | –
NPP3B86 (antibody, V domains shown, mAb from Ablexis Kappa mice) VH: QVQLVQSGAEVKKPGASVKVSCKASGYTVTNYYIFWVRQAPGQGLEWMGWINPNSGGTNYAQKFQGRVTMTRDTSINTAYMKLSRLGSDDTAVYYCARGGYSGYALSSHYGMDVWGQGTMVTVSS VL: EIVLTQSPGTLSLSPGERATLSCRASQSVSSSYLAWYQQKPGQAPRLLIYDASSRATGIPDRFSGSGSGTDFTLIISRLEPEDFAVYYCQQYDSSPLTFGGGTKVEIK | – | 0.245 | ~5 | – | –
NPP3B56 (antibody, V domains shown, mAb from Ablexis Kappa mice) VH: EVQLVESGGGRVKPGGSLRLSCAASGFTFSDYSMNWVRQAPGKGLEWVSSISSISSYVKYADSVKGRFTMSRDNAKNSLFLQMNSLRDEDMAVYYCARGHYFDYWGQGTLVTVSS VL: EIVMTQSPATLSVSPGERATLSCRASQSVSSNLAWYQQKPGLAPRLLIYGASTRATGIPARFSGSGSGTEFTLTISSLQSEDFAVYYCQQYNNWPRTFGQGTKVEIK | – | 0.215 | ~2 | – | –

Now from value to binder, other results behind:

EC50 (read off the curve) (human ENPP3 on cells) [µg/mL] | Kd (human ENPP3) [nM] | Kd (cynomolgus monkey ENPP3) [nM] | Binder | binding result (ENPP1 on CHOK1 cells) | binding result (ENPP2 on CHOK1 cells)
– | 0.129 | ~1 | NPP3B98 (antibody, V domains shown, mAb from Ablexis Kappa mice) VH: QVQLQESGPGLVKPSETLSLTCTVSGGSISNYYWSWIRQPAGKGLEWIGRIYASGSTNYNPSLKSRVTMSVDTSKNQFSLRLRSVTATDTAVYYCAREGYSSTLYDNAFDFWGQGTMVTVSS VL: DIQMTQSPSSVSASVGGRVTITCRASQGISTWLAWYQQKPGKAPKLLIYAASSLQSGVPSRFSGSGSGTDFTLTISSLQPEDFATYYCQQANSFPLTFGGGTKVEIK | – | –
– | 0.0977 | – | NPP3B100 (antibody, V domains shown, mAb from Ablexis Kappa mice) VH: QVQLQESGPGLVKTSETLSLTCTVSGGSISSHYWSWIRQPPGKGLEWIGNIFYSGSTNYNPSLKSRVTMSVDTSKNHFSLKLISVTTADTAIYYCARHDHVWFDPWGQGTLVTVSS VL: not shown | – | –
– | 0.133 | ~20 | NPP3B107 (antibody, V domains shown, mAb from Ablexis Kappa mice) VH: EVQLVESGGGLVKPGGSLRLSCAASGFIFSDYSMNWVRQAPGKGLEWVSSISSGSSYIYYADSLKGRFTISRDNAKNSLYLQMSSLRAEDTAVYYCVRGLDYFDYWGQGALVTVSS VL: DIQMTQSPSFLSASVGDRVTITCRASQDISNYLAWYQQKPGRAPKLLIYVASTLQSGVPSRFSGSGSGTEFTLTISSLQPEDFATYYCQQLNSYPRTFGQGTKVEIK | – | –
